The values that follow are results of earlier work, collected in publication PMC7680388.

This data set addresses Ubiquitin (Homo sapiens) (UniProt P0CG48).

Sequence of Rpn13 (Q16186 2-407): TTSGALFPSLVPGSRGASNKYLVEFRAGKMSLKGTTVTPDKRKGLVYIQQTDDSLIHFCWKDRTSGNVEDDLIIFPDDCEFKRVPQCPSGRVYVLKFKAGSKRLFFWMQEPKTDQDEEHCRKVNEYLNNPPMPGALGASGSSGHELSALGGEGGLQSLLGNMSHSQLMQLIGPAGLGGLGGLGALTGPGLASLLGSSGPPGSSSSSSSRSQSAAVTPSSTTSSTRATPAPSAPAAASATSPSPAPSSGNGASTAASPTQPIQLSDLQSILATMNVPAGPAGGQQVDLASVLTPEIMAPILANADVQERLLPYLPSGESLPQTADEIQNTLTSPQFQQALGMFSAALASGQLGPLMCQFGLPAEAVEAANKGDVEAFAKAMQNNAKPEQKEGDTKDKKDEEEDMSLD

What is called Kd is the concentration at which binding is half-saturated. Take Rpn13 (from UniProt Q16186): the Kd is 40 µM.
